In patent US20200138716A1, “COMPOSITIONS AND METHODS FOR INDUCING NANOPARTICLE-MEDIATED MICROVASCULAR EMBOLIZATION OF TUMORS” (Poseida Therapeutics, Inc., priority 2014, published 2020):
Read-outs that look alike come from different tables or passages of the source.

Key:
[1] = background values; cited from earlier work
[2] = tested on: human umbilical vein endothelial cells (HUVECs); experiment: CuFL1A fluorescence, extracellular NO of cultured HUVECs; assay type: cell-based; settings: for effect of further additions of DEANO on CuFL1A emission: DEANO added; for CuFL1A fluorescence compared to extracellular environment of HUVECs: no DEANO
Experimental: Cells may be incubated with 1 μM or less, relative to total concentration, of the NO sensor in PBS buffer or a growth medium for imaging. Concentration may be adjusted to reduce the fluorescent signal intensity to desired levels. Imaging of extra-cellular NO may be performed directly in the growth medium for imaging, and images may be taken as often as needed following cell stimulation.
In another example study, pooled 4× passaged human umbilical vein endothelial cells (HUVECs) were grown in Corning Costar 96 well white plates with clear bottoms in EBM-2 media to 80-90% confluence. Half of the free metMb and metPEM suspensions were incubated with sodium sulfate to reduce the myoglobin back to oxyMb form. The free oxyMb and oxyPEM suspensions were then dialyzed for four hours to remove salt. The rest of the original metMb and metPEM suspensions were used as received.
A 4× concentrated FL1A stock solution (10 μM in PBS+gluc+ca+mg/DMSO), a 4× concentrated DEANO stock solution (200 μM in 10 mM NaOH), and a 4× concentrated LNNA stock solution (400 μM in PBS+glu+ca+mg) were prepared so that 50 μL of each was added per well to a final and consistent volume of 200 μL per well.
A 2× concentrated stock solution of metMb (50 mg/mL in PBS+gluc+ca+mg) and 2× concentrated oxyMb (50 mg/mL in PBS+gluc+ca+mg) solution were also prepared. […] Fluorescence readings were obtained from each well following a set 30-minute incubation period with each of the experimental groups.

[3] = CuFL1A fluorescence NO sensor assay in solution; assay type: biochemical; settings: for CuFL1A fluorescence on addition of DEANO: DEANO added to the solution
Experimental: In various studies to test these potential mechanisms, PEM may be incubated with a NO probe. […] When non-emissive CuFL1A reacts with NO, Cu(II) is reduced to Cu(I), among other changes, to produce fluorescent FL1A-NO. In this manner, CuFL1A may be used as an NO sensor activated by fluorescence to assess the relative NO levels in solution. In various studies, cultured umbilical vein endothelial cells may be incubated with CuFL1A and either PEM or a control in order to assess changes in NO levels in the extracellular environment. In various studies, luminal chemiluminescence due to the presence of reactive oxygen species may be used to assess the biological consequences of PEM-bound NO promotion of neutrophil activation. The FL1A ligands may be dissolved in spectroscopic grade DMSO to achieve a final concentration of the stock solution of around […]. To determine the exact concentration, the stock solution may be diluted in pH 7 aqueous buffer and the absorbance of the bands at 504 and 499 nm may be measured with E=4.6×104 M-1 cm-1. The absorbance value and dilution factor may be recorded and the exact concentration of the ligand in the stock solution may be calculated. The DMSO stock solution of the metal-free ligand may be aliquoted in 50 μL portions and stored at -80° C. The aliquots may be thawed and the absorbance of the band at 504 or 499 nm may be checked before use. […] The copper complex may be prepared fresh, immediately before cell incubation, using one of the frozen aliquots of the ligand stock solution. […] The unused portion of the solution may be discarded by the end of the day. In an example study, half of the free MetMb and […] suspensions were incubated with sodium sulfate to reduce the myoglobin back to its oxyMb form. The free oxyMb and oxyPEM suspensions were then dialyzed for 4h to remove salt, and the rest of the original metMb and […] suspensions were used as received. […] A 2× concentrated stock solution of metMb (50 mg/mL in PBS) and oxyMb (50 mg/mL in PBS) was prepared. The final concentrations of empty polymersomes, […] and oxyPEM were determined by UV-Vis spectrometry and ICP-OES. The final volume in each well was 200 μL, and therefore 100 μL of each solution was added per well, thus diluting these original stock solutions by half. Fluorescence was measured various time points for each condition.

[4] = Oxygen equilibrium binding curves (Hemox Analyzer, Hill model); settings: 37° C.; partial pressure of O2 at 50% saturation
Experimental: Oxygen equilibrium binding curves of PEM and free Mb dispersions may be measured using a Hemox™ Analyzer at physiological temperature (37° C.). In brief, samples may be allowed to saturate to a pO2 of 147 mm Hg using compressed air and then deoxygenated using a compressed nitrogen stream. UV-Vis absorbance measurements of oxygenated and deoxygenated samples may be recorded as a function of pO2 via dual wavelength spectroscopy. Oxygen-PEM/myoglobin equilibrium curves may be fit to a four-parameter (A0, A∞, P50, n) Hill model:
in which A0 and A∞ represent the absorbance at 0 mm Hg and at full O2 saturation, respectively. The pO2 represents the partial pressure of O2, and P50 represents the partial pressure of O2 where PEM/Mb is 50% saturated with oxygen. Lastly, ‘n’ represents the cooperativity coefficient of PEM/Mb. […] The lower O2 affinity (higher P50) of PEM than free myoglobin may be attributed to the shielding effect of the polymersome membrane, which was further found to delay the kinetics of O2 binding to PEM.

HUVECs = experiment: Luminol chemiluminescence (reactive oxygen species) with HUVECs alone; assay type: cell-based, human; settings: HUVECs without neutrophils, 30 minutes
Experimental: (§1) In another example study, similar to the previous study, pooled 4× passaged human umbilical vein endothelial cells (HUVECs) were grown in Corning Costar 96 well white plate with clear bottoms in EBM-2 media to 80-90% confluence. Half of the free metMb and […] suspensions were incubated with sodium sulfate to reduce the myoglobin back to oxyMb form. The free oxyMb and oxyPEM suspensions were then dialyzed for four hours to remove salt. The rest of the original metMb and […] suspensions were used as received. […] A 2× concentrated stock solution of metMb (50 mg/mL in PBS+gluc+ca+mg) and 2× concentrated stock of oxyMb (50 mg/mL in PBS+gluc+ca+mag) were prepared. The final concentrations of empty polymersome, […], and oxyPEM were determined by UV-Vis spectrometry and ICP-OES. […] Further, 600 μM of a luminol solution in media containing 18.75 μ/mL horseradish peroxidase (HRP) was prepared, with final concentrations in assay wells of around 120 μM luminol and 3.75 μ/mL HRP. […] A luminometor was used to continuously measure instantaneous reactive oxygen species generation after addition of each treatment administered to the HUVECs with and without neutrophils (total assay time 30 minutes). At the end of the study, sample supernatant were aliquoted and the cells were fixed and frozen for future myeloperoxidase assays or MPO ELISAs to look at degranulation.

[5] = tested on: human neutrophils incubated with HUVECs; experiment: Luminol chemiluminescence, neutrophil activation on HUVECs; assay type: cell-based; settings: for generation of reactive oxygen species compared to luminol control: neutrophils with HUVECs, 30 minutes, maximal concentrations (25 mg/mL polymer or protein; metPEM 1.3 mg/mL metMb, 23.5 mg/mL polymer)
Experimental: as §1, with “received. Further, a ficoll-paque density gradient separation was used to purify fresh human neutrophils and re-suspend in media at a concentration of 6×10^6 neutrophils/mL. In the assay, […] aliquots were added per well, with a final volume of 200 μL per well, as in the study above.” for “received.”

[6] = no DEANO, higher concentrations (e.g. 25 mg/mL metMb)

Molecule | P50 [1] | affinity for oxygen / oxygen tension of release [1] | generation of reactive oxygen species (luminol chemiluminescence) (HUVECs) | effect of further additions of DEANO on CuFL1A emission [2] | CuFL1A fluorescence compared to extracellular environment of HUVECs [2] | generation of reactive oxygen species compared to luminol control [5] | CuFL1A fluorescence on addition of DEANO [3] | CuFL1A fluorescence compared to its intensity in PBS [3, 6] | also measured
hemoglobin: oxygen-transporting protein in human red blood cells | 25-50 mmHg | 20 to 50 mmHg |  |  |  |  |  |  | 
CCN(CC)/[N+]([O-])=N/O.CCNCC [DEANO, diethylamine NO, reference compound] |  |  |  |  |  |  |  |  | increase in CuFL1A emission in extracellular environment of HUVECs ([2]; 30-minute incubation): ~1.5 fold; CuFL1A fluorescence compared to its intensity in PBS ([3]; solution, no cells): around seven-fold
hemoglobin A: Normal adult hemoglobin A | 26.5 mmHg |  |  |  |  |  |  |  | 
free Mb: free (unencapsulated) myoglobin (protein, UniProt P68082 2-154, looked up) Myoglobin: GLSDGEWQQVLNVWGKVEADIAGHGQEVLIRLFTGHPETLEKFDKFKHLKTEAEMKASEDLKKHGTVVLTALGGILKKKGHHEAELKPLAQSHATKHKIPIKYLEFISDAIIHVLHSKHPGDFGADAQGAMTKALELFRNDIAAKYKELGFQG | 2.75 mmHg | 2 to 3 mmHg |  |  |  |  |  |  | P50 [4]: ~2 mm Hg
metMb: metmyoglobin, free protein (protein, UniProt P68082 2-154, looked up, met (ferric) form, metmyoglobin, free protein) Myoglobin: GLSDGEWQQVLNVWGKVEADIAGHGQEVLIRLFTGHPETLEKFDKFKHLKTEAEMKASEDLKKHGTVVLTALGGILKKKGHHEAELKPLAQSHATKHKIPIKYLEFISDAIIHVLHSKHPGDFGADAQGAMTKALELFRNDIAAKYKELGFQG |  |  | do not, in and of themselves, result in the generation of reactive oxygen species | only able to partially mitigate | diminished | no appreciable generation of reactive oxygen species | the degree of amplification in CuFL1A emission was lower | dramatically reduced | total oxidative burst (integrated luminol chemiluminescence), neutrophil activation ([5]; 30 minute incubation): did not have any effects
oxyMb: oxygenated myoglobin, free protein (protein, UniProt P68082 2-154, looked up, oxygenated form, oxygenated myoglobin, free protein) Myoglobin: GLSDGEWQQVLNVWGKVEADIAGHGQEVLIRLFTGHPETLEKFDKFKHLKTEAEMKASEDLKKHGTVVLTALGGILKKKGHHEAELKPLAQSHATKHKIPIKYLEFISDAIIHVLHSKHPGDFGADAQGAMTKALELFRNDIAAKYKELGFQG |  |  | do not, in and of themselves, result in the generation of reactive oxygen species | not able to mitigate | diminished | statistically significant increase | did not augment CuFL1A fluorescence | markedly decreased to baseline values | effect of DEANO addition on neutrophil activation ([5]; DEANO added): did not mitigate the levels of neutrophil activation; CuFL1A fluorescence compared to its intensity in PBS ([3]; no DEANO, low concentrations (metMb up to 5 mg/mL)): greater
